Literature values as cited in PMC2983480.
pKd: −log10 of the molar value.

Molecular target: Arp2/3 complex (Bos taurus) (UniProt A7MB62)

WASp VCA (from UniProt P42768)
pKd: 6.05
